Drawing on US20240066100A1 (published 2024), this text covers Kd for seven molecules.

Changes are numbered by the printed parent chain.

Assay [1] concerns the target T1, mouse IL-18BP (amino acids 31-194), biotinylated (mouse, UniProt Q9Z0M9 29-193, biotin on the AviTag (BirA ligase)).
T1 construct: Secreted from Expi293 cells with H7 signal peptide (cleaved); The printed residue range is the same as for the human protein and may not fit the mouse entry; also called mIL-18BP
T1 sequence: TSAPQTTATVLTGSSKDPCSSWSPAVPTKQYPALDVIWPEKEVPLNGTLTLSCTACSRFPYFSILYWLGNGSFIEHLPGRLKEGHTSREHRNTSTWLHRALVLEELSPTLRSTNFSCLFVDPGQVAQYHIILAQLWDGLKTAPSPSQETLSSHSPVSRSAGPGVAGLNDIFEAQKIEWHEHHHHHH
The assay can be described thus: yeast binding isotherms and SPR.

The target in assay [2] is T2, human IL-18Rα ectodomain (amino acids 19-329), biotinylated (human, UniProt Q13478 19-329, biotin on the AviTag (BirA ligase)).
T2 construct: range 19-329; Secreted from insect cells with gp67 signal peptide (cleaved); also called hIL-18Rα; IL-18R1
T2 sequence: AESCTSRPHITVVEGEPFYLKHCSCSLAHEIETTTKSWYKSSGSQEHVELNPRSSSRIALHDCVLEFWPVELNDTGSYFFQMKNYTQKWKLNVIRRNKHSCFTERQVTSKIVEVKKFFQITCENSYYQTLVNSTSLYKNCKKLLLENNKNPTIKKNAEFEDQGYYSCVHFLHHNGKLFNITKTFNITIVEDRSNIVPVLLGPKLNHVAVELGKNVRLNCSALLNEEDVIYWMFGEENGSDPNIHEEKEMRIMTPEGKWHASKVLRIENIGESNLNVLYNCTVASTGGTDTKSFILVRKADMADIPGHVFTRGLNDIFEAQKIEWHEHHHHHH
Briefly: on-yeast binding isotherm, flow cytometry; exponent missing in the cell, derived from c3/c4. (In general: In flow cytometry, cells or beads pass a laser one at a time.)

The target in assay [3] is T2, human IL-18Rα ectodomain (amino acids …). The assay can be described thus: on-yeast binding isotherm, flow cytometry; exponent missing in the cell, derived from 20 µM/c4.

B1: murine decoy-resistant IL-18 variant SEQ ID NO: 64 (ligand)
chain: NFGRLHCTTAVIRNINDQVLFVDKRQPVFEDMTDIDQSASEPQTRLIIYVYTDGRRRGKAVTLSVKDSKMSTLSCKNKIISFEEMDPPENIDDIQSDLIFFQKKVPGHDKMEFESSLYEGHFLACQKEDDAFKLILKKKDENGDKSVMFTLTNLHQS
notes: Engineered variant of mature mouse IL-18; tag and display linker not in chains; also called mE8; E8
Consider B1, for which, in assay [1], the Kd (usually the constant that tells how readily two partners part at equilibrium) is over 1000 nM.

B2: human decoy-resistant IL-18 variant SEQ ID NO: 34 (ligand)
chain: YFGKLESKLSVIRNLNDQVLFIDQGNRPLFEDMTDSDCRDNAPRTIFIISTYKDSQPRGKAVTISVKCEKISTLSCENKIISFKEMNPPDNIKDTKSDIIFFQRDVPGHKHKMQFESSSYEGYFLACEKERDLFKLILKKEDELGDRSIMFTVQNED
notes: Engineered variant of mature human IL-18; tag and display linker not in chains; also called hCS1; hCS-1
The molecule B2 registered a Kd in assay [2] of 64.4 nM.

B3: human decoy-resistant IL-18 variant SEQ ID NO: 57 (ligand)
chain: B2 chain with Y1R, L5H, K53R, Q103E, D105N, H111Y
notes: Engineered variant of mature human IL-18; display linker not in chains; also called hB9
Turning to B3, in assay [3], the Kd came out at 127 nM. This lies in the sub-micromolar range.

B4: human decoy-resistant IL-18 variant SEQ ID NO: 36 (ligand)
chain: B2 chain with Y1R
notes: Engineered variant of mature human IL-18; tag and display linker not in chains; also called hCS3
Take B4: the Kd in assay [2] is 113 nM. This counts as sub-micromolar.

B5: human decoy-resistant IL-18 variant SEQ ID NO: 37 (ligand)
chain: B2 chain with Y1R, K53R, D105N, H111Y
notes: Engineered variant of mature human IL-18; tag and display linker not in chains; also called hCS4
In turn, B5 yielded a Kd in assay [3] of 160 nM. That is a sub-micromolar value.

B6: human decoy-resistant IL-18 variant SEQ ID NO: 52 (ligand)
chain: B2 chain with Y1R, K8R
notes: Engineered variant of mature human IL-18; display linker not in chains; also called hH3
For B6, the affinity in assay [3], expressed as Kd, was 83.8 nM.

B7: human decoy-resistant IL-18 variant SEQ ID NO: 39 (ligand)
chain: B2 chain with K8R, T51K, S55K, G59A, K60Q, V153I
notes: Engineered variant of mature human IL-18; display linker not in chains; also called hA8
With B7, in assay [3], binding was characterised by a dissociation constant (Kd) of 57.7 nM.
